Measured values from patent US20050196844.

Tested on: E. coli synthesized tau (352 residue isoform), non-phosphorylated

| Substance | in vitro kinase reaction, immunoblot with anti-PY18 and 4G10 |
| --- | --- |
| src tyrosine kinase (Upstate Biotechnologies) | Identical results were observed for src. |
| fyn tyrosine kinase (Upstate Biotechnologies) | fyn kinased tyr18 in vitro |
